From article PMC9239237, “Salmonella Facilitates Iron Acquisition through UMPylation of Ferric Uptake Regulator” (mBio, 2022)

How the values were obtained:
[1] = target: the molecule itself; assay: SEC; 100 ug protein on a Superdex 200 column; a 53-kDa protein and a 22-kDa protein run under the same conditions as controls
[2] = target: T1, Fur (native, not UMPylated) (Escherichia coli K-12 substrain MG1655, UniProt P0A9A9 1-148); assay: EMSA; shift at Fur:DNA molar ratio above 1; no metal addition stated; DNA annealed in 10 mM Tris-HCl pH 7.5, 150 mM NaCl; binding buffer not stated; 20 nM DNA, 37 C 10 min (Methods) vs 10 nmol DNA, 30 C 10 min (Fig. 4 legend); 6%; conditions: protein: recombinant; tags: His tag removed with PPase (pGL01); chain copies: 2; blunt
T1 sequence: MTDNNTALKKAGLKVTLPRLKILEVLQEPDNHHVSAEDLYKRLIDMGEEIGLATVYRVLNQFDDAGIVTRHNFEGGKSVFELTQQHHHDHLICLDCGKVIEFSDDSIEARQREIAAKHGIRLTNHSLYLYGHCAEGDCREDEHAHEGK

B1: E. coli Fur (ferric uptake regulator) purified from ydiU knockout E. coli, without UMPylation (natural protein, UniProt P0A9A9 1-148, looked up)
chain: MTDNNTALKKAGLKVTLPRLKILEVLQEPDNHHVSAEDLYKRLIDMGEEIGLATVYRVLNQFDDAGIVTRHNFEGGKSVFELTQQHHHDHLICLDCGKVIEFSDDSIEARQREIAAKHGIRLTNHSLYLYGHCAEGDCREDEHAHEGK
notes: Ferric uptake regulator Fur, E. coli K-12 substrain MG1655; fur gene amplified from genomic DNA and cloned into pGL01 (modified pET15b with a PPase cleavage site); also called Fur^dYdiU; native Fur; source: E. coli BL21(DE3) ydiU knockout strain, purified (Ni-NTA, His tag removed by PPase, Superdex 200)
- stoichiometry N [1]: 2

B2: Fur box DNA (dsDNA)
DNA 1: GATAATGATAATGATAATGATAATGATAATGA
DNA 2: TCATTATCATTATCATTATCATTATCATTATC
- binding result [2]: binds
